Test results from patent publication US20110071283.

Test system: fibrinogen

## human thrombin
  SDS-PAGE analysis of hydrolysis of fibrinogen (Aα-strand): has a similar strength to human thrombin
